Test results as given in patent US20110091994A1, “Methods for Screening Compounds for Treating and/or Preventing an Hepatitis C Virus Infection” (priority 2008, published 2011).
Read-outs that look alike come from different tables or passages of the source.

Assays:
[1] = system: HCV RNA replication; assay: HCV RNA replication under bile acids / FXR ligands; type: cell-based, Hepatitis C virus
[2] = biological target: T1, HCV ORFs (Gal4-DB fusions) (Hepatitis C virus genotype 1b, UniProt Q9WMX2); type: binding, HCV genotype 1b, isolate con1; details: human protein as prey
T1 construct: expressed in transfected cells; host or cells: Saccharomyces cerevisiae MAV203 (IMAP1) / AH109 (IMAP2)

[3] = system: HCV ORFs (Gal4-DB fusions); type: binding, HCV genotype 1b, isolate con1; details: human protein listed by gene symbol; the value names the HCV protein it interacts with
[4] = biological target: T2, GST-tagged viral proteins (Hepatitis C virus genotype 1b, UniProt Q9WMX2); assay: Validation by co-affinity purification (CoAP); type: binding, HCV genotype 1b, isolate con1; set-up: key: +: IMAP validation; −: not validated; NA: non assayable due to default of protein expression or to cellular protein directly interacting with GST
T2 construct: expressed in transfected cells; host or cells: HEK-293T
Source text: C. Validation of Y2H interactions by co-affinity purification assay. Nine co-AP positive assays are shown, representing: NS5A-SORBS2 (1), NS3-CALCOCO2 (2), NS5A-BIN1 (3), NS5A-MOBK1B (4), NS5A-EFEMP1 (5), NS3-PSMB9 and NS5A-PSMB9 (6), NS5A-PPPIRI3L (7), NS3-RASAL2 (8). After pull-down with GST tagged viral baits (+) or with negative control GST alone (−), cellular preys are identified with anti-Flag antibody. Anti-GST antibody identifies either GST alone or GST-tagged viral baits. Expression of cellular preys in cell lysate is controlled by anti-Flag (bottom panel). […]
A random pool of 59 IMAP Y2H interactions was chosen for CoAP assays. Cellular ORFs (interacting domains found in Y2H screens) were cloned by recombinational cloning from a pool of human cDNA library or the MGC cDNA plasmids using KOD polymerase (Toyobo) into pDONR207 (Invitrogen). After validation by sequencing, these ORFs were transferred to pCi-neo-3xFLAG gateway-converted, and HCV ORFs were transferred into pDEST27 (GST fusion in N-term). HEK-293T cells were then co-transfected (JetPei, Polyplus) by each pair of plasmid encoding interacting proteins. Controls are GST alone against 3xFLAG-tagged preys. Two days after transfection, cells were harvested and lysed (0.5% NP-40, 20 mM Tris-HCl (pH 8.0), 180 mM NaCl, 1 mM EDTA, and complete protease inhibitor cocktail). Cell lysates were cleared by centrifugation for 20 min at 13,000 rpm at 4° C. and soluble protein complexes were purified using Glutathione Sepharose 4B beads (GE Healthcare). Beads were then washed extensively four times with lysis buffer and proteins were separated on SDS-PAGE and transferred to nitrocellulose membrane. GST-tagged viral proteins and 3xFLAG-tagged cellular proteins were detected using standard immunoblotting techniques using anti-GST (Covance) and anti-FLAG M2 (Sigma) monoclonal antibodies (21).

[5] = biological target: T3, HCV proteins (Hepatitis C virus genotype 1b, UniProt Q9WMX2); assay: Validation by Y2H pairwise matrices; type: binding;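 further: yeast two-hybrid pairwise tests of interactions first found in Y2H screens of HCV bait proteins against human cDNA libraries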
T3 construct: expressed in transfected cells

[6] = validation of interaction with HCV protein NS3
[7] = interaction with HCV protein NS5A
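Wherever IMAP Y2H IMAP1 (number of IST) is given: yeast two-hybrid screens using HCV genotype 1b proteins fused to Gal4-DB as baits against prey cDNA libraries from human spleen and foetal brain, IMAP1 via transformation and IMAP2 via mating.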
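Wherever IMAP Y2H IMAP2 (number of IST) is given: yeast two-hybrid screens using HCV genotype 1b proteins fused to Gal4-DB as baits against prey cDNA libraries from human spleen and foetal brain, IMAP1 via transformation and IMAP2 via mating.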
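Wherever Interaction with viral protein is given: yeast two-hybrid screens using HCV genotype 1b proteins fused to Gal4-DB as baits against prey cDNA libraries from human spleen and foetal brain, IMAP1 via transformation and IMAP2 via mating.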

Row | Compound | IMAP Y2H IMAP1 (number of IST) ([2]; HCV protein NS3 as bait) | IMAP Y2H IMAP2 (number of IST) ([2]; HCV protein NS3 as bait) | Interaction with viral protein [3] | CoAP [4, 6] | Y2H matrices [5, 6] | further results
1 | C/C=C1\C(=O)C[C@H]2[C@@H]3CCC4=CC(=O)CC[C@]4(C)[C@H]3CC[C@]12C [guggulsterone] |  |  |  |  |  | effect on the up-regulation of HCV replication induced by BAs ([1]; FXR antagonism, in presence of BAs): blocked the up-regulation induced by BAs; inhibition of basal level of HCV replication ([1]; guggulsterone alone): tenfold
2 | ACTN2 | 10 | 6 | NS3 | − | + | 
3 | CALCOCO2 | 5 | 2 | NS3 | + | + | 
4 | KPNA1 |  | 8 | NS3 | + |  | 
5 | PPP1R13L |  |  | NS5A |  |  | IMAP Y2H IMAP2 (number of IST) ([2]; HCV protein NS5A as bait): 2; CoAP [4, 7]: +
6 | SMURF2 |  | 4 | NS3 and NS2 | + |  | 
7 | UBQLN1 |  |  | NS4A |  |  | IMAP Y2H IMAP1 (number of IST) ([2]; HCV protein NS4A as bait): 2; IMAP Y2H IMAP1 (number of IST) ([2]; HCV protein p7 as bait): 3; Y2H matrices ([5]; interaction with HCV protein p7): +; Y2H matrices ([5]; validation of interaction with HCV protein NS4A): +
8 | VCAN | 1 |  | NS3 |  | + | 
9 | VIM | 32 |  | NS3 |  | + | 
10 | VWF | 26 |  | NS3 and CORE |  | + | IMAP Y2H IMAP1 (number of IST) ([2]; HCV protein CORE as bait): 2; Y2H matrices ([5]; validation of interaction with HCV protein CORE): +
11 | ZNF646 |  |  |  |  |  | IMAP Y2H IMAP2 (number of IST) ([2]; HCV protein NS5A as bait): 2; CoAP [4, 7]: −
12 | deoxycholate |  |  |  |  |  | up-regulation of HCV RNA replication [1]: more than tenfold
